Experiments:
HO1 [1] = target: T1, HO1 (Homo sapiens); test: SPR
T1 chain: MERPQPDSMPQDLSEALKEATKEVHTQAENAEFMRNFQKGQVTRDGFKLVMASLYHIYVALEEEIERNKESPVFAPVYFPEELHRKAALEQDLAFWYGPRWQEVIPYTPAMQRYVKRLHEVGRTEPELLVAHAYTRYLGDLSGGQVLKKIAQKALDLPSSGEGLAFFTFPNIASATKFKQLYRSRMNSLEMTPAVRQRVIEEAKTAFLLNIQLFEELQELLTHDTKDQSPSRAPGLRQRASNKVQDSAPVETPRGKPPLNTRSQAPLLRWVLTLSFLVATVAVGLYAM

HO1 [2] = target: T1, HO1; test: SPR
Gαi1 [3] = target: Gαi1 (Homo sapiens); test: SPR
Gαi1 [4] = target: Gαi1 (Homo sapiens); test: SPR; remark: listed apart in the source
[5] = target: T2, recombinant PGRMC1 of the surface plasmon resonance analyses (human, UniProt O00264 44-195); test: SPR; haem-bound PGRMC1
[6] = target: T2, recombinant PGRMC1 of the surface …; test: SPR; haem-bound PGRMC1; remark: listed apart in the source

T2 sequence (O00264 44-195): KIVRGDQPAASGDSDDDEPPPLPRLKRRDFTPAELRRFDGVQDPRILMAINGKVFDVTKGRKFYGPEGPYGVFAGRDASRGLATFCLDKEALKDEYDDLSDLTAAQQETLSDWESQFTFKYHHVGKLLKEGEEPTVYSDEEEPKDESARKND
Sequence of Gαi1 (Homo sapiens) (chain, as listed by the source): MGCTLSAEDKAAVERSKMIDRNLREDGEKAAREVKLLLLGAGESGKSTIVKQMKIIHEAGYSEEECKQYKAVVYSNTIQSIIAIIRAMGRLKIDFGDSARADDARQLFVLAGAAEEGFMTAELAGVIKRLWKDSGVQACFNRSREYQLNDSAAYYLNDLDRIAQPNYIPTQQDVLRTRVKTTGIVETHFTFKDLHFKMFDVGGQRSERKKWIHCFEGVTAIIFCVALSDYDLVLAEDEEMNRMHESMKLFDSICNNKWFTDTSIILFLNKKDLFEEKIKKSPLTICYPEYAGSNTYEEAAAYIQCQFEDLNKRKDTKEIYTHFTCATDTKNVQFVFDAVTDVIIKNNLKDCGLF

B1: CPR (protein)
chain: MGDSHVDTSSTVSEAVAEEVSLFSMTDMILFSLIVGLLTYWFLFRKKKEEVPEFTKIQTLTSSVRESSFVEKMKKTGRNIIVFYGSQTGTAEEFANRLSKDAHRYGMRGMSADPEEYDLADLSSLPEIDNALVVFCMATYGEGDPTDNAQDFYDWLQETDVDLSGVKFAVFGLGNKTYEHFNAMGKYVDKRLEQLGAQRIFELGLGDDDGNLEEDFITWREQFWPAVCEHFGVEATGEESSIRQYELVVHTDIDAAKVYMGEMGRLKSYENQKPPFDAKNPFLAAVTTNRKLNQGTERHLMHLELDISDSKIRYESGDHVAVYPANDSALVNQLGKILGADLDVVMSLNNLDEESNKKHPFPCPTSYRTALTYYLDITNPPRTNVLYELAQYASEPSEQELLRKMASSSGEGKELYLSWVVEARRHILAILQDCPSLRPPIDHLCELLPRLQARYYSIASSSKVHPNSVHICAVVVEYETKAGRINKGVATNWLRAKEPAGENGGRALVPMFVRKSQFRLPFKATTPVIMVGPGTGVAPFIGFIQERAWLRQQGKEVGETLLYYGCRRSDEDYLYREELAQFHRDGALTQLNVAFSREQSHKVYVQHLLKQDREHLWKLIEGGAHIYVCGDARNMARDVQNTFYDIVAELGAMEHAQAVDYIKKLMTKGRYSLDVWS
modifications: FAD and FMN cofactors; literature comparison value, construct not given, full length and human species assumed haem state not stated; literature comparison value, the cited study may have used a C-terminally truncated soluble form
koff (HO1 [1]): 0.004 s⁻¹ | Kd (HO1 [2]): 2400 nM

B2: Neuroglobin (protein)
chain: MERPEPELIRQSWRAVSRSPLEHGTVLFARLFALEPDLLPLFQYNCRQFSSPEDCLSSPEFLDHIRKVMLVIDAAVTNVEDLSSLEEYLASLGRKHRAVGVKLSSFSTVGESLLYMLEKCLGPAFTPATRAAWSQLYGAVVQAMSRGWDGE
modifications: haem b bound (oxidation state not stated); literature comparison value, construct not given; check residues are from general knowledge, not the paper nucleotide state not stated; literature comparison value, construct and species not given; check residues are from general knowledge, not the paper
koff (Gαi1 [3]): 0.0003 s⁻¹ | Kd (Gαi1 [4]): 600 nM

B3: recombinant CYP51 (enzyme)
chain: MAAAAGMLLLGLLQAGGSVLGQAMEKVTGGNLLSMLLIACAFTLSLVYLIRLAAGHLVQLPAGVKSPPYIFSPIPFLGHAIAFGKSPIEFLENAYEKYGPVFSFTMVGKTFTYLLGSDAAALLFNSKNEDLNAEDVYSRLTTPVFGKGVAYDVPNPVFLEQKKMLKSGLNIAHFKQHVSIIEKETKEYFESWGESGEKNVFEALSELIILTASHCLHGKEIRSQLNEKVAQLYADLDGGFSHAAWLLPGWLPLPSFRRRDRAHREIKDIFYKAIQKRRQSQEKIDDILQTLLDATYKDGRPLTDDEVAGMLIGLLLAGQHTSSTTSAWMGFFLARDKTLQKKCYLEQKTVCGENLPPLTYDQLKDLNLLDRCIKETLRLRPPIMIMMRMARTPQTVAGYTIPPGHQVCVSPTVNQRLKDSWVERLDFNPDRYLQDNPASGEKFAYVPFGAGRHRCIGENFAYVQIKTIWSTMLRLYEFDLIDGYFPTVNYTTMIHTPENPVIRYKRRSK
Kd [5]: 5.9 µM | koff [6]: 0.0012 s⁻¹

From publication PMC4802085 (2016)
